Data as given in patent publication US20100234294A1 (INSTITUT NATIONAL DE LA SANTE ET DE LA RECHERCHE MEDICALE …, published 2010).

Experiments:
Assay in all cases: co-expression in COS cells
FcERIγ = target: T1, FcERIγ (UniProt P30273 19-86)
T1 sequence (looked up): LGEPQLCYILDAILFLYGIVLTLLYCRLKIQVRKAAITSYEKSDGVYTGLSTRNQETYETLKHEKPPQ

ζ = target: T2, ζ (UniProt P20963 22-164)
T2 construct: also called CD3ζ

DAP12 = DAP12 (UniProt O43914 22-113)
DAP10 = target: T3, DAP10 (UniProt Q9UBK5 19-93)
T3 sequence (looked up): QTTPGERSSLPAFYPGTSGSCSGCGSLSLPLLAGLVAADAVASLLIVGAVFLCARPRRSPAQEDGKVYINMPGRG

T2 sequence (P20963 22-164 limits assumed): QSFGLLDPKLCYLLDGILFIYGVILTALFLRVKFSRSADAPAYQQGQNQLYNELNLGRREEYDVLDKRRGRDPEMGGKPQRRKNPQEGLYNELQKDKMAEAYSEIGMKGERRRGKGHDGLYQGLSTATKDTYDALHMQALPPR
Sequence of DAP12 (O43914 22-113 limits assumed): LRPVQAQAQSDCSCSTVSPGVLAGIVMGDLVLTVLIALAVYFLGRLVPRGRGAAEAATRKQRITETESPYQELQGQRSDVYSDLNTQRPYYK

binding result (FcERIγ): no binding
binding result (ζ): no binding
binding result (DAP12): no binding
binding result (DAP10): no binding
B1: CD160-TM, Flag-tagged, expressed by transfected cells (receptor)
chain: GCINITSSASQEGTRLNLICTVWHKKEEAEGFVVFLCKDRSGDCSPETSLKQLRLKRDPGIDGVGEISSQLMFTISQVTPLHSGTYQCCARSQKSGIRLQGHFFSILFTETGNYTVTGLKQRQHLEFSHNEGTLSSGFLQEKVWVMLVTSLVALQGMSKRAVSTPSNEGAIIFLPPWLFSRRRRLERMSRGREKCYSSPGYPQESSNQFH
notes: Expressed in Jurkat cells from pEF6; Also used here for the co-expression in COS cells, where the construct is not described; also called CD160-TM transfectants; CD160-TM-transfected cells; not shown: Flag tag coded by the reverse oligonucleotide (C-terminal)
